In patent US20250019450A1 (DIAGONAL THERAPEUTICS, published 2025):

T1: human IL-12Rβ2, Acro (BLI analyte) (human, UniProt Q99665 24-622, limits assumed)
T1 sequence (looked up): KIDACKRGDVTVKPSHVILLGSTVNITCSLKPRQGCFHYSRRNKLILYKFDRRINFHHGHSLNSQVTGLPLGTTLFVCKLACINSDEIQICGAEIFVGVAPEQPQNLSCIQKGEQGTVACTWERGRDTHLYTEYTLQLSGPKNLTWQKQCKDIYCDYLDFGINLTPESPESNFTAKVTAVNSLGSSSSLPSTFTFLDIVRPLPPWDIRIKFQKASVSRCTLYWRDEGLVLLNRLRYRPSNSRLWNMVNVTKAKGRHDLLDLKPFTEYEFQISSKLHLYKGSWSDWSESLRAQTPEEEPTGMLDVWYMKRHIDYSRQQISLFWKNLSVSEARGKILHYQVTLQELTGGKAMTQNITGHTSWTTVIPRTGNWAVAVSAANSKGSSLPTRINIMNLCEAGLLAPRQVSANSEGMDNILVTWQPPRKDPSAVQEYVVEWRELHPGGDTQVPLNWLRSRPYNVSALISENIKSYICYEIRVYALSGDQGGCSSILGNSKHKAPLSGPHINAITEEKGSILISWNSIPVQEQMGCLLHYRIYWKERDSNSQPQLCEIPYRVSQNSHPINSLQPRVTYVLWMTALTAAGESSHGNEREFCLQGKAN

B1: DGL534 (bispecific antibody, V domains shown)
V domain 1: QVQLVESGGGLVQAGGSLRLSCLASGRTSNYFMGWFRQAPGKEREFVAAISRSGGGTWYADSVKGRFAISRDNAKNTVNLQMNSLKREDTAVYYCAADRRTGTSVYTVDEYDYWGQGTQVTVEP
V domain 2: QVQLVESGGGLVQPGGSLRLSCAASGFTFSNYAMSWVRQAPGKGLEWVSAINSDGTSTSYADSVKGQFTISRDNAKNTLYLQMNSLKPEDTAVYYCTKWEGDTDSDYKFKDYWGQGTQVTVEP
notes: 115B1 x 19B2
B2: DGL586 (bispecific antibody, V domains shown)
V domain 1: QVQLVESGGGLVQAGGSLRLSCAASGRTFSSYVMGWFRQAPGQEREFVAAIMRNGIMTYYADSVKGRFTISRDNAKNTVYLQMNTLKPDDTAVYYCAAASRVGVSISQSSSYTSWGQGTQVTVEP
V domain 2: B1 V domain 2
notes: 258B1 x 19B2
B3: DGL607 (bispecific antibody, V domains shown)
V domain 1: QVQLVESGGGLMQAGGSLRLSCALSRGIFSAYAMGWFRQVQGKEREFVSGISRSGSTTDYVDTAKGRFTISRDNARDTVYLQMNSLKPEDTAVYYCAAVTGTFPSSTYHNANAYHHWGQGTQVTVEP
V domain 2: QVQLVESGGGLVQAGGSLKLSCAASGGTFSSYAMGWFRQAPGKEREFVAVIMRSGDTTAYVDSVKGRFTVSRDNAKNTVYLQMNSLKPEDAAVYFCAAGRPVTRTYYHTYTYPHDYDYWGQGTQVTVEP
notes: 86B1 x 278B2
B4: DGL412 (bispecific antibody, human IgG1, kappa)
heavy 1: not shown
heavy 2: QVQLVESGGGLVRPGGSLRLSCAASGFTFSSNGMHWFRQAPGKGLEWVSSIGSGGTSIYYADSVKGRFTISRDNAKNTLYLQMNSLKSDDTAVYYCSKEVTGATRGQGTQVTVEPKSSDKTHTCPPCPAPEAAGAPSVFLFPPKPKDTLMISRTPEVTCVVVDVSHEDPEVKFNWYVDGVEVHNAKTKPREEQYNSTYRVVSVLTVLHQDWLNGKEYKCKVSNKALPAPIEKTISKAKGQPREPQVCTLPPSRDELTKNQVSLSCAVKGFYPSDIAVEWESNGQPENNYKTTPPVLDSDGSFFLVSKLTVDKSRWQQGNVFSCSVMHEALHNRFTQKSLSLSPG
light: DIQMTQSPSSLSASVGDRVTITCRASQGIGNYLAWFQQRPGKAPKSLIYAASSLQSGVPSKFSGSGSGTDFTLTISSLQPADFAIYYCQQYNIYPYTFGPGTRLEIKRTVAAPSVFIFPPSDEQLKSGTASVVCLLNNFYPREAKVQWKVDNALQSGNSQESVTEQDSKDSTYSLSSTLTLSKADYEKHKVYACEVTHQGLSSPVTKSFNRGEC
notes: 85801_05G01A x 13B2
B5: DGL515 (bispecific antibody, V domains shown)
V domain 1: QVQLVESGGGLAQAGGSLRLSCAASGRTFSNDDMAWFRQAPGKEREFVAHIDRNAASTNYADSVKGRFTISRDNAKNTVYLQMTRLKPEDTAVYYCAADPDHFGTTWYQQYTYWGPGTQVTVEP
V domain 2: QVQLVESGGGLVQAGGSLRVSCAASGRIPSLNTMAWYRQAPGKQREFVAFITNGGTTNYVDSVEGRFSISRDNTKNAVDLQMNSLKPEDTGVYYCNVQISQYPYNYWGQGTQVTVEP
notes: 97B1 x 85B2
B6: DGL605 (bispecific antibody, V domains shown)
V domain 1: QLQLVESGGGLVQPGGSLRLSCAASGFTFSSYGMSWVRQAPGKGLEWVSYISAGGGTTTYVDFVKGRFTISRDNAKNMLYLQMNSLKPEDTAVYYCVHAADGSRGQGTQVTVEP
V domain 2: QVQLVESGGGLVQPGGSLRLSCAASGFTFEPYDMSWFRQAPGKGPEWVSAIDKGGGAGATYYADSVKGRFTISRDNAKKTLYLQMKSLKPEDTAVYYCAITAGPYSDSTPRVAYRGEGTQVTVEP
notes: 238B1 x 93B2
B7: DGL482 (bispecific antibody, V domains shown)
V domain 1: QVQLVESGGGLVQAGGSLRLSCAASARIFNSYAVAWFRQTPGKEREFVASISWSGGSTNYADSVKGRFTISRDNAKNTVFLQMNSLKPADTAVYYCAADRNYYPSVLGKYTYWGQGTQVTVEP
V domain 2: QVQLVESGGGLVQPGGSLRLSCAASGFTFSSKAMHWFRQAPGKGLEWVSSINSGGAITYYKDSVKGRFTVSRDNAKNILYLEMNSLKPEDTALYYCATDTDGRTRGQGTQVTVEP
notes: 67B1 x 64B2
B8: DGL487 (bispecific antibody, V domains shown)
V domain 1: B7 V domain 1
V domain 2: QVQLQESGPGLVKPSQTLSLTCTVSGGSITTNYYYWSWIRQPPGKGLEWMGAIAYSGSTYYSPSLKSRTSISRDTSKNQFTLQLSSVTPEDTAVYYCASGINFYSNYPTLNEYDYWGQGTQVTVEP
notes: 67B1 x 190B2
B9: DGL444 (bispecific antibody, human IgG1, lambda)
heavy 1: not shown
heavy 2: QVQLVQSGAEVKKPGASVKVSCKASGYTFIGYYIHWVRQAPGQGLEWMGWINPHSGGTNYAQKFQGRVTMTRDTSISTAYMELSRLRSDDTAIYYCTKEANNWGYAFDIWGQGTMVTVSSASTKGPSVFPLAPSSKSTSGGTAALGCLVKDYFPEPVTVSWNSGALTSGVHTFPAVLQSSGLYSLSSVVTVPSSSLGTQTYICNVNHKPSNTKVDKKVEPKSCDKTHTCPPCPAPEAAGAPSVFLFPPKPKDTLMISRTPEVTCVVVDVSHEDPEVKFNWYVDGVEVHNAKTKPREEQYNSTYRVVSVLTVLHQDWLNGKEYKCKVSNKALPAPIEKTISKAKGQPREPQVCTLPPSRDELTKNQVSLSCAVKGFYPSDIAVEWESNGQPENNYKTTPPVLDSDGSFFLVSKLTVDKSRWQQGNVFSCSVMHEALHNRFTQKSLSLSPG
light: not shown
notes: 195B1 x 85802_08F20A
B10: DGL426 (bispecific antibody, human IgG1, lambda)
heavy 1: not shown
heavy 2: B9 heavy 2
light: not shown
B11: DGL551 (bispecific antibody, V domains shown)
V domain 1: QVQLVESGGGLVQAGGSLRLSCAASGRTFGTYAMGWFRQAPGKERDFVARISNSGAFTHYADSVKGRFTISRDNAKNTVYLHMNSLENGDTAAYYCVATRGTNSAYYTRSTMYEYWGQGTQVTVEP
V domain 2: QVQLVESGGGLVQAGGSLRLSCAASGRTFSRYRMGWFRQAPGKEREFVAAITKSGATTYDADSVKGRFTISRDNAKNTLYLQMNSLKPEDTAVYYCAASYHSNWWPKNADEYAYWGQGTQVTVEP
notes: 195B1 x 185B2

Each binder was assayed against human IL-12 receptor (IL-12Rβ1 and IL-12Rβ2) on HEK-Blue IL-12 cells (human, UniProt P42701 24-662; Q99665 24-862) (assay: cell-based or functional assay).

Binder | EC50 | Max Absorbance
B1 | 4.5e-10 M (implied) | 0.69
B2 | 7.7e-11 M (implied) | 0.6
B3 | 7e-09 M (implied) | 0.61
B4 | > 100 nM | 1.28
B5 | > 100 nM | 0.64
B6 | 4.6e-10 M (implied) | 0.74
B7 | 2.9e-09 M (implied) | 0.68
B8 | 3.1e-09 M (implied) | 0.64
B9 | 1.5e-10 M (implied) | 0.61
B10 | 2.7e-10 M (implied) | 1.24
B11 | 4.7e-09 M (implied) | 0.59

The binders below were run against human IL-12Rβ1, Acro (BLI analyte) (human, UniProt P42701 24-545) (assay: BLI (Octet), antibody on AHC tip).

Binder | Kd [nM]
B1 | 59.5
B2 | 7.26
B3 | 27.4
B4 | 11.3
B5 | 20.8
B6 | 2.25
B7 | 6.83
B8 | 5.49
B9 | 8.96
B10 | 15.9
B11 | 10.6

The binders below were run against T1, human IL-12Rβ2, Acro (BLI analyte) (assay: BLI (Octet), antibody on AHC tip).

Binder | Kd [nM]
B1 | 0.706
B2 | 0.768
B3 | 11.8
B4 | 2.21
B5 | < 0.001
B6 | 1.87
B7 | 7.4
B8 | 16.1
B9 | 0.386
B10 | 0.321
B11 | 8.29
